Patent US20240317868A1 (Boehringer Ingelheim, published 2024)

Tests used:
[1] = target: human IL1RAP on cells (human) (UniProt Q9NPH3); assay: cell-based or functional assay
human IL1RAP [2] = target: T1, human IL1RAP (human, UniProt Q9NPH3 21-367, limits assumed, biotinylated in the ELISA screens (site not stated)); assay: ELISA, antigen titration: Fab (1:5) captured on anti-Fd coat 700 ng/ml (4.7 nM), IL1RAP antigen titrated (the concentration axis is the antigen), SA-HRP 1:4000
T1 construct: also called huIL1RAP; IL1RAP antigen
T1 sequence (looked up): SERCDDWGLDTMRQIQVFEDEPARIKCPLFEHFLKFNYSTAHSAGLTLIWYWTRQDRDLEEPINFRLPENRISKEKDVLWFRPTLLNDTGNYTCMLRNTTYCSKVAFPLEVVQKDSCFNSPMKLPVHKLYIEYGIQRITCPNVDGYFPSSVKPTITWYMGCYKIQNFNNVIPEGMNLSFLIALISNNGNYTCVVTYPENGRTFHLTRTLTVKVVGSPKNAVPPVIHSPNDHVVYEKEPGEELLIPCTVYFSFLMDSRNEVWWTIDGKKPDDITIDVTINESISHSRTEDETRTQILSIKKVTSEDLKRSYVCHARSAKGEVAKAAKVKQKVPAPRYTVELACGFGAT

human IL1RAP [3] = target: T1, human IL1RAP; assay: ELISA of point mutant IgG (light chain mutant with the parental chimeric heavy chain, CHO-E expression), one bar each, concentration not given
From the text: For light chain 13 variants (T25A, E27Q, N28S, N30S, Y50A, K52S, T53Y, A55Q, E56S, H90Q, H91S, G93S and S95P) and 19 heavy chain variants (Y27G, I28T, L30S, T31S, W33Y, M34I, N35S, Q50R, F521, A541, S55L, D56G, S57I, T58A, N61A, E62Q, M63K, K65Q and D66G) were generated separately in the vector pTT5 (See FIG. 3A/B). The light chain mutants were paired with the parental chimeric heavy chain and heavy chain mutants were paired with parental chimeric light chain for expression analysis in CHO-E cells for 7 days. The resulting variants were evaluated for binding in ELISA experiments and compared to the parental chimeric IgG which has mouse variable region but human constant regions. For light chain variants, six point mutants VK-T25A, E27Q, N28S, N30S, K52S and T53Y depicted binding similar to chimeric IgG (+10% control; FIG. 3A) while for heavy chain […] point mutants VH-I28T, L30S, M34I, N35S, D56G, T58A, N61A, E62Q, M63K, K65Q and D66G depicted similar binding as chimeric IgG (+10% control; FIG. 3B).

B1: CAN04 (antibody, INN chains, looked up, V domains shown)
VH: QVQLVQSGAEVKKPGSSVKVSCKASGYAFTSSWMNWVRQAPGQGLEWMGRIYPGDGNTHYAQKFQGRVTLTADKSTSTAYMELSSLRSEDTAVYYCGEGYLDPMDYWGQGTLVTVSS
VL: DIQMTQSPSSLSASVGDRVTITCQASQGINNYLNWYQQKPGKAPKLLIHYTSGLHAGVPSRFSGSGSGTDYTLTISSLEPEDVATYYCQQYSILPWTFGGGTKVEIK
IC90 IFN-gamma release (WB), IL-33 [1]: > 1000 nM | IC90 IL-8 release (NCI-H292), IL1-B [1]: > 1000 nM | IC90 IL-8 release (NCI-H292), IL-1A [1]: > 1000 nM | IC90 IL-8 release (NCI-H292), IL-33 [1]: 46 nM | IC90 IL-8 release (NCI-H292), IL-36G [1]: > 1000 nM | IC90 MIP-1B release (WB), IL1-B [1]: 125 nM | IC90 MIP-1B release (WB), IL-1A [1]: > 1000 nM | IC90 MIP-1B release (WB), IL-36G [1]: 43 nM | IC90 Nf-KB activation (HEK-Blue), IL1-B [1]: 56 nM | IC90 Nf-KB activation (HEK-Blue), IL-1A [1]: > 1000 nM | IC90 Nf-KB activation (HEK-Blue), IL-33 [1]: > 1000 nM | IC90 Nf-KB activation (HEK-Blue), IL-36G [1]: > 1000 nM

B2: engrafted Fab (GO11 CDRs on IGKV1-39*01 and IGHV1-69*02) (Fab, V domains shown)
VH: QVQLVQSGAEVKKPGSSVKVSCKASGYIFLTYWMNWVRQAPGQGLEWMGQIFPASDSTYYNEMFKDRVTITADKSTSTAYMELSSLRSEDTAVYYCARSGPYSYYAGGYALDYWGQGTLVTVSS
VL: DIQMTQSPSSLSASVGDRVTITCRTSENINSYLAWYQQKPGKAPKLLIYYAKTLAEGVPSRFSGSGSGTDFTLTISSLQPEDFATYYCQHHYGTSLTFGQGTKLEIK
notes: Fab from E. coli periplasmic extract; constant parts not specified; also called HUMANIZED/GRAFT 005-G011 #A1
binding result (human IL1RAP [2]): binds

B3: GO11 chimeric IgG, light chain point mutant VK-E27Q (antibody, V domains shown)
VH: QVHLQQSGPELVRPGTSVKISCEASGYIFLTYWMNWVKQRPGQGLEWIGQIFPASDSTYYNEMFKDKARFTVDKSSSTAYMQFSSLTSEDTAVYFCARSGPYSYYAGGYALDYWGQGTSVTVSS
VL: DIQMTQSPASLSASVGETVTITCRTSQNINSYLAWYQQKQGKSPQLLVHYAKTLAEGVPSRFSGSGSGTQFSLKINSLKPEDFGSYYCQHHYGTSLTFGAGTKLELK
notes: Light chain mutant paired with the parental chimeric heavy chain; IgG backbone, expressed in CHO-E
binding result (human IL1RAP [3]): binds

B4: GO11 chimeric IgG, light chain point mutant VK-K52S (antibody, V domains shown)
VH: QVHLQQSGPELVRPGTSVKISCEASGYIFLTYWMNWVKQRPGQGLEWIGQIFPASDSTYYNEMFKDKARFTVDKSSSTAYMQFSSLTSEDTAVYFCARSGPYSYYAGGYALDYWGQGTSVTVSS
VL: DIQMTQSPASLSASVGETVTITCRTSENINSYLAWYQQKQGKSPQLLVHYASTLAEGVPSRFSGSGSGTQFSLKINSLKPEDFGSYYCQHHYGTSLTFGAGTKLELK
notes: as for B3
binding result (human IL1RAP [3]): binds

B5: GO11 chimeric IgG, light chain point mutant VK-N28S (antibody, V domains shown)
VH: QVHLQQSGPELVRPGTSVKISCEASGYIFLTYWMNWVKQRPGQGLEWIGQIFPASDSTYYNEMFKDKARFTVDKSSSTAYMQFSSLTSEDTAVYFCARSGPYSYYAGGYALDYWGQGTSVTVSS
VL: DIQMTQSPASLSASVGETVTITCRTSESINSYLAWYQQKQGKSPQLLVHYAKTLAEGVPSRFSGSGSGTQFSLKINSLKPEDFGSYYCQHHYGTSLTFGAGTKLELK
notes: as for B3
binding result (human IL1RAP [3]): binds

B6: GO11 chimeric IgG, light chain point mutant VK-N30S (antibody, V domains shown)
VH: QVHLQQSGPELVRPGTSVKISCEASGYIFLTYWMNWVKQRPGQGLEWIGQIFPASDSTYYNEMFKDKARFTVDKSSSTAYMQFSSLTSEDTAVYFCARSGPYSYYAGGYALDYWGQGTSVTVSS
VL: DIQMTQSPASLSASVGETVTITCRTSENISSYLAWYQQKQGKSPQLLVHYAKTLAEGVPSRFSGSGSGTQFSLKINSLKPEDFGSYYCQHHYGTSLTFGAGTKLELK
notes: as for B3
binding result (human IL1RAP [3]): binds

B7: GO11 chimeric IgG, light chain point mutant VK-T25A (antibody, V domains shown)
VH: QVHLQQSGPELVRPGTSVKISCEASGYIFLTYWMNWVKQRPGQGLEWIGQIFPASDSTYYNEMFKDKARFTVDKSSSTAYMQFSSLTSEDTAVYFCARSGPYSYYAGGYALDYWGQGTSVTVSS
VL: DIQMTQSPASLSASVGETVTITCRASENINSYLAWYQQKQGKSPQLLVHYAKTLAEGVPSRFSGSGSGTQFSLKINSLKPEDFGSYYCQHHYGTSLTFGAGTKLELK
notes: as for B3
binding result (human IL1RAP [3]): binds

B8: VK-Y50A (antibody, V domains shown)
VH: QVHLQQSGPELVRPGTSVKISCEASGYIFLTYWMNWVKQRPGQGLEWIGQIFPASDSTYYNEMFKDKARFTVDKSSSTAYMQFSSLTSEDTAVYFCARSGPYSYYAGGYALDYWGQGTSVTVSS
VL: DIQMTQSPASLSASVGETVTITCRTSENINSYLAWYQQKQGKSPQLLVHAAKTLAEGVPSRFSGSGSGTQFSLKINSLKPEDFGSYYCQHHYGTSLTFGAGTKLELKR
notes: germlining point mutant, paired with the parental chimeric heavy chain; also called GO11 chimeric IgG, light chain point mutant Y50A; copies: 2 + 2
binding result (human IL1RAP [3]): binds

B9: VK-A55Q (antibody, V domains shown)
VH: QVHLQQSGPELVRPGTSVKISCEASGYIFLTYWMNWVKQRPGQGLEWIGQIFPASDSTYYNEMFKDKARFTVDKSSSTAYMQFSSLTSEDTAVYFCARSGPYSYYAGGYALDYWGQGTSVTVSS
VL: DIQMTQSPASLSASVGETVTITCRTSENINSYLAWYQQKQGKSPQLLVHYAKTLQEGVPSRFSGSGSGTQFSLKINSLKPEDFGSYYCQHHYGTSLTFGAGTKLELKR
notes: germlining point mutant, paired with the parental chimeric heavy chain; also called GO11 chimeric IgG, light chain point mutant A55Q; copies: 2 + 2
binding result (human IL1RAP [3]): binds

B10: VK-E56S (antibody, V domains shown)
VH: QVHLQQSGPELVRPGTSVKISCEASGYIFLTYWMNWVKQRPGQGLEWIGQIFPASDSTYYNEMFKDKARFTVDKSSSTAYMQFSSLTSEDTAVYFCARSGPYSYYAGGYALDYWGQGTSVTVSS
VL: DIQMTQSPASLSASVGETVTITCRTSENINSYLAWYQQKQGKSPQLLVHYAKTLASGVPSRFSGSGSGTQFSLKINSLKPEDFGSYYCQHHYGTSLTFGAGTKLELKR
notes: germlining point mutant, paired with the parental chimeric heavy chain; also called GO11 chimeric IgG, light chain point mutant E56S; copies: 2 + 2
binding result (human IL1RAP [3]): binds

B11: VK-G93S (antibody, V domains shown)
VH: QVHLQQSGPELVRPGTSVKISCEASGYIFLTYWMNWVKQRPGQGLEWIGQIFPASDSTYYNEMFKDKARFTVDKSSSTAYMQFSSLTSEDTAVYFCARSGPYSYYAGGYALDYWGQGTSVTVSS
VL: DIQMTQSPASLSASVGETVTITCRTSENINSYLAWYQQKQGKSPQLLVHYAKTLAEGVPSRFSGSGSGTQFSLKINSLKPEDFGSYYCQHHYSTSLTFGAGTKLELKR
notes: germlining point mutant, paired with the parental chimeric heavy chain; also called GO11 chimeric IgG, light chain point mutant G93S; copies: 2 + 2
binding result (human IL1RAP [3]): binds

B12: VK-H90Q (antibody, V domains shown)
VH: QVHLQQSGPELVRPGTSVKISCEASGYIFLTYWMNWVKQRPGQGLEWIGQIFPASDSTYYNEMFKDKARFTVDKSSSTAYMQFSSLTSEDTAVYFCARSGPYSYYAGGYALDYWGQGTSVTVSS
VL: DIQMTQSPASLSASVGETVTITCRTSENINSYLAWYQQKQGKSPQLLVHYAKTLAEGVPSRFSGSGSGTQFSLKINSLKPEDFGSYYCQQHYGTSLTFGAGTKLELKR
notes: germlining point mutant, paired with the parental chimeric heavy chain; also called GO11 chimeric IgG, light chain point mutant H90Q; copies: 2 + 2
binding result (human IL1RAP [3]): binds

B13: VK-H91S (antibody, V domains shown)
VH: QVHLQQSGPELVRPGTSVKISCEASGYIFLTYWMNWVKQRPGQGLEWIGQIFPASDSTYYNEMFKDKARFTVDKSSSTAYMQFSSLTSEDTAVYFCARSGPYSYYAGGYALDYWGQGTSVTVSS
VL: DIQMTQSPASLSASVGETVTITCRTSENINSYLAWYQQKQGKSPQLLVHYAKTLAEGVPSRFSGSGSGTQFSLKINSLKPEDFGSYYCQHSYGTSLTFGAGTKLELKR
notes: germlining point mutant, paired with the parental chimeric heavy chain; also called GO11 chimeric IgG, light chain point mutant H91S; copies: 2 + 2
binding result (human IL1RAP [3]): binds

B14: VK-S95P (antibody, V domains shown)
VH: QVHLQQSGPELVRPGTSVKISCEASGYIFLTYWMNWVKQRPGQGLEWIGQIFPASDSTYYNEMFKDKARFTVDKSSSTAYMQFSSLTSEDTAVYFCARSGPYSYYAGGYALDYWGQGTSVTVSS
VL: DIQMTQSPASLSASVGETVTITCRTSENINSYLAWYQQKQGKSPQLLVHYAKTLAEGVPSRFSGSGSGTQFSLKINSLKPEDFGSYYCQHHYGTPLTFGAGTKLELKR
notes: germlining point mutant, paired with the parental chimeric heavy chain; also called GO11 chimeric IgG, light chain point mutant S95P; copies: 2 + 2
binding result (human IL1RAP [3]): binds
